Where “and” joins values, the source holds several entries; their conditions need not be identical. Equal values may be shown once.

For the data set, the system named is Bacillus subtilis DB104 (SP-AmyQ fusion secretion). Briefly: AmyQ secretion efficiency, weighted average sort bin (1 = best secretion, 10 = worst) (bin number (weighted average, 1-10)); higher = lower secretion efficiency. In short, it runs like this: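 A B. subtilis DB104 library carrying amyE-integrated fusions of designed signal peptides to mature AmyQ was encapsulated at about 0.3 cells per ~65 nL alginate bead with fluorescein-starch and grown about 13 h at room temperature. Following nile red staining, occupied beads were flow-sorted as large particles into 10 equally populated bins by green/red fluorescence ratio, and the bin amplicons were Illumina-sequenced. The secretion score is the read-frequency-weighted average bin number normalised to beads per bin, leaving out low-abundance sequences.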

MKKVVSALSISALALSVSGVASAHEI registered an AmyQ secretion efficiency of 2.8. Sequence MMKKGLLAGALTATVLFGTCKDAEAASQ displayed an AmyQ secretion efficiency of 1.66. The value for MKWMCKKCCAAVLLAGGAAQAEAV was 5.26; that for MMKRSSLIMMTGLLFGLTSPAFAAEK was 3.11. The value for MKRLFMKASLVLFAVVFVFAVKGAPAKAADD was 3.6. To MNKFLKSNFRFLLAAALGISLLASSNFIKASND belongs 4.18 and 4.22 and 2.8; to MFKKHMNNFTISLLIIFLLASAVLAKPIEAHTV, 3.28; to MKKIGLLFMLCLAALFTIGFPAQQLDAAEA, 2.04.

For the sequence MKVPKTMLLSTAAGLLLSLTATSVSAKRK, the AmyQ secretion efficiency was 5.92.

MKKVMLATALFLGLTFTTFAPAGANAADL had an AmyQ secretion efficiency of 2.89. To MRKTSLLLAGLCTAAQMVFVTHASAEES belongs 2.32; to MTGGVILAAFILVGSTLGAFSFSSDASAKHV, 3.83; to MNRLFMKASLVLFAVVFVFAVKGAPAKAETH, 1.75.

For the sequence MKLKKRVSMFLVALTMCGTPAKAVKT, the AmyQ secretion efficiency was determined as 2.72. Sequence MHRRRKAAGAVCLAVVLIAGCRFNEDQHQAEGENT gave an AmyQ secretion efficiency of 4.73. The value for MKKKLAAGLTASAIVGTVTPAEAATI was 5.84; that for “MKKMSNSTNSMSVLMAFIICLSLILSVLAAPPSGAKAESV” was 1.73; that for MKSCKQYKRCQYSSILLLIPSVSFAADS was 7.62.

As for MNKPTKLFSTLALAAGMTRRKKRKAGTIHAQQP, the AmyQ secretion efficiency stood at 6.79. The sequence MKSKWMSGLLLVAVGFSFTQVMVHHGET yielded an AmyQ secretion efficiency of 6.33. The value for MGLGKKLSVAVAASFMSLSISLPVQAAEG was 1.35; that for MKKAFLVFLSVVLVTTVFLSKQQESVAQAKQL was 1.98. To MRPVFPLILSAVLFLSCFFGARQTEASSSKR belongs 3.03. To MKRMIVRMTLPLLIVCLAFSTSFSASARAASE belongs 2.38; to MFRLLVSLRVWMVFLMNWVTPDRKTAAAAVY, 7.07; to MNMSITYSLLALLAVVAFAFTDSSKAKAAEA, 2.51. Consider MLTLRTLCVLMILSGVIFFGLKIDAKDI, for which the AmyQ secretion efficiency is 6.18. For MKVKKSALLLLLFAFEPSASGKKL, the AmyQ secretion efficiency was 7.2. The sequence MNKKYFVLIVCIIFTSALFPTFSSVTCAQG yielded an AmyQ secretion efficiency of 1.06. The value for MNLRKILLSSALSLGMLVSAAPVLHTSS was 6.17; that for MPYLKRVLLLLVTGLFMSLFEEEATASAQTG was 1.12.

Turning to MKLKKRVSMFLVALTMCGGLFVTVIIVAKAVKT, the AmyQ secretion efficiency was 6.35. MGSGTIWTIILGALLVCCIAVAYTLTKSQAGASSS returned an AmyQ secretion efficiency of 7.61. To MRKRRKKILALFVLSLGLLSFMVTPVSAASK belongs 2.65; to MKKKIVAGLAVSAVVIVAMAAAIAEAKTI, 6.55.

As to MKKWLIIAVSLAIAIVLFRRKKGRAKAAGM, the AmyQ secretion efficiency amounted to 5.92. For the sequence MKKAFLVFLSVVLVTTVFLVKQQEAQAKQL, the AmyQ secretion efficiency is 2.1. The value for MKKWIYVVLVLSIAGIGGPSVHAASS was 2.74. The value for MRPVFPLILSAVLFLSCFFGARQTEASWSKR was 4.13; that for MKKQIITATTAVVLGSTLFAGAKSAQSI was 3.92; that for MNLNTILLSSALSLGMLVSAAPVLATSS was 1.5. To MRKRTKTSLLLAGLCTAAQMVFVTHASAEES belongs 3.51.

Regarding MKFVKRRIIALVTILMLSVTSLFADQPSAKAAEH, the AmyQ secretion efficiency stood at 3.52. In the case of MNLRKILLSSALSLGMLTLFFLSAVTVSAAPVLATSS, the AmyQ secretion efficiency is 1.71. Take MKLKSKLLLSCLALSTVFVATTIKNAPTH: the AmyQ secretion efficiency came to 6.58. To MFMMLGSLLITAGILVFFAVVVKDVFAAGL belongs 6.51; to MKKLLAAGIIGLLTVSIASPYFAAEK, 6.19; to MKRLLVSLRVWMVFLMNWVTPDRKTAAAAEE, 6.3.

The sequence MKRTSTAYLLLGILCSAAVFLIGAPSRALGAEV had an AmyQ secretion efficiency of 2.85. The sequence MKKRLIGFLVLVPALIMSGITLAEANKK came in with an AmyQ secretion efficiency of 7.38.

MKKKQVSHAIIISVMLSFVIAVFRRHRKHASELTP: the AmyQ secretion efficiency came to 7.4. The value for MKLAKRVSALTPSTTLAITVKAKEL was 6.82; that for MKRFLIGAGVAAVILSGWFIADHQKHSQEM was 5.36; that for MLKKIALTLCPAIVGSLLFFTAPASDHVS was 5.33. Sequence MKRLTLVCSIVFILFILFYDLKIGTDEASAKTA yielded an AmyQ secretion efficiency of 4.35.

MFKKGYSSYRKRTFSLSLVLPLDGHAKAQEV yielded an AmyQ secretion efficiency of 7.96. To MKKKKAGLFLAAAVLLCLMVPQQIQGASS belongs 4.01.

For MKKAKKKKLSLGLVFGFSYGAGHVAEAKTK, the AmyQ secretion efficiency worked out at 7.52. The sequence MTKKRRRAWFLPLVCVLLISGWLAPAASASAQTT yielded an AmyQ secretion efficiency of 2.33.

In the case of MKKGIIRFLLVSFVLFFALSTGITGKQAAPA, the AmyQ secretion efficiency came out at 5.05. To MILITINIITMFIAAAVISLTGTAEAAEK belongs 4.83; to MKKRITYSLLALLAVVAFAFTDSSKSKAAEA, 3.09; to MKKLLAAGIIGLLTVSIASPQFAAEK, 6.75. MRNLTKTSLLLAGLCTAAQMVFVTHASCEES had an AmyQ secretion efficiency of 4.5.

Turning to MKRLLSTLLIGIMLLTFAPSPAATVFPVAFAKQD, the AmyQ secretion efficiency was determined as 1.66.

MKKRLIGFLVLVPALIMSGITLGEANKK came in with an AmyQ secretion efficiency of 6.8. The value for MRMLWRSLALCGLALTLAPCTGTAQAAEP was 1.82; that for MRSKKLLFTLWISLLFALTLIFTMAFSNMSAQAAGK was 2.87; that for MKQGKFSKRLILLLMLTLVVAPKEKAEAASS was 1.59. To MKKVLMAFIICLSLILSVLAAPPSGAKTESV belongs 5.06; to MRKKLKWLSFLLGFIILLFLFKYQPSNNDS, 7.17. To MLKKKWMVGLLAGCLAAGVALALSGFSYNAFATEN belongs 5.02. As to MRNLTKTSLLLAGLCTAAQMVFVTHASAATD, the AmyQ secretion efficiency is 2.35. To MRFTKVVGFLSVLGLAAVAQAEKA belongs 5.78; to MIMLWRSLALCGLALTLAPCAQAAEP, 4.91. Regarding MLKRTSFVSSLFISSAVLLSILLPSGQIHAQSA, the AmyQ secretion efficiency stood at 2.68. MKKLLAAGIIGLLTVSIASPGFVFSFAAEK: the AmyQ secretion efficiency is 8.62.

The sequence MRSYIKVLTMCFLGLILFVPALADNS displayed an AmyQ secretion efficiency of 6.75. For the sequence MKKLLAAGIIGLLTVSIASPWFAAEK, the AmyQ secretion efficiency was 7.98.

In turn, MKKRITYSFTMMLLALLAVVAFAFTDSSKAKAAEA gave an AmyQ secretion efficiency of 1.93.

Regarding MLCVMMLLFSAIASFPVSFQAKDQ, the AmyQ secretion efficiency was 8.56. For the sequence MRSYIKVLTMCFLGLILFVPTRLADNS, the AmyQ secretion efficiency stood at 6.28. The value for MRKKRVITCVMAASLTLGSLLPAGYASFKED was 3.82; that for MMIKQCVICLSLLVFGTIAIAHAEET was 4.16. The value for MKSKGSIMACLILFSFTITTFINTETISVFSN was 7.71; that for MHLIRAAGAVCLARFNEDQHQAEGENT was 8.19; that for MKRKKLCVMMLLFSAIASFPVSAQAKDQ was 2.65. The sequence MLGIRLLTIYIMLLGLIAWFPGAAQAEEK displayed an AmyQ secretion efficiency of 2.38.

Turning to MTKKTKNRLISSVLSTVVISSLLFPGAAGASSK, the AmyQ secretion efficiency was determined as 1.56.

On to MTKLKMLSMGKRRTASLFIFSSQALAVQY, for which the AmyQ secretion efficiency turned out to be 7.8. To MKKWMITIAMLKRRRIALFVFISPLKSHKT belongs 7.36; to MRKKRVITCVMAASLTLGSLLPAGYATADDE, 4.08. The value for MKRFLIGAGVAAVILKRWFIARHQTHSQEM was 7.28. The sequence MKRRRRKIWTIILGALLVCCIAVAYTLTKSQAGASSS returned an AmyQ secretion efficiency of 5.49. MILTKVLTGSVLSLGLLVSASPAFATSP: the AmyQ secretion efficiency is 1.75. To MKKRFFGPIILAFAGAIAIPS belongs 9.34. For MKKTIMSFKRKKKKSTTAFGAHASAKEI, the AmyQ secretion efficiency came out at 6.45. The value for MKLSVKIAGVLTVAAAAMTAKMYATGKGN was 6.84; that for MLTKRLLTIYIMLLGLIDDDPGAAQAEEK was 9.93. Sequence MHLIRAAGAVCLAVVLIAGCRFIIVAIGAEGENT returned an AmyQ secretion efficiency of 6.53. To MKKTIMSFVAVAALSTTAFGAHFSAKEI belongs 4.73; to MKVPKTMLLSTAAGLLLSLTATSVSAHYK, 5.14; to MIAYFGKCLLLVTIMFLGVLFGMFQANHG, 6.57. The value for MGLGKKLSVAVAASFMSLSISLVSVQAAEG was 1.37; that for MGLGKKLSVAVAASFMSLSISLRKKVQAAEG was 8.03. To MRSYIKVLTMCFLGLILFVPTNLADNS belongs 3.6; to MKKLLAAGIIGLLTVSIASPCFAAEK, 2.42; to MKKLLAAGIIGLLTVSIASPSFAADD, 2.83.

These data come from the supplement of paper PMC9942255.
